Data reported in doi:10.1101/2020.09.04.283184 (bioRxiv, 2020).

Target: the molecule itself
Assay: PORT-HS-AFM

B1: Chlamydomonas reinhardtii SAS-6[NL] homodimer (domain or fragment, UniProt A9CQL4 1-503, looked up)
chain: MPLLLDDGDPKAQTGFDLSTATTLFWRPVPVHVKQQDREDVLEELTFRILTGVAKQNHNLRILRIHISSDSDLFFLHTLEVSEEDFQSLKNDQGILVDFASFPGKIISLLEKCILAQPGDSPRFQAVLTIRGGESVFKIVEINDFKQLPHITLAFRPGNDSVVKQFLAFRLSEVKGTCHDLSDDLSRTRDDRDSMVAQLAQCRQQLAQLREQYDKHLLEVQAQAKTQQASAHEERIREKSQLKDQFEKERGEMEGRYRDQIAALNTRLGELDTENRKLREVKYELDTKVSELSHKLGSSEGSNRSLEEETARLRSLNQQLSSSKHELEIQLNEAKAKVLALDEKAQSQGDVIEQQRGRLRDMEAALRQTEQRCADLRDTLASAEGRAKEAQAEVLKGNQAIEKLTNDLRLAKEKTKRKAAIILRQEEELQEREQSLANATRDVGVLGQQAESLRKDVASLHSENDSLRSKLEDSKQQLQSNEQMIRWLNQQVTEAQLHASGAT
stoichiometry N: 7 to 10 homodimers
